Values of other authors in article doi:10.1101/2024.02.22.581550.

Molecular target: Cys145 (UniProt position 145, PILIPCHRVVC)

In the case of “O6-alkylguanine-DNA alkyltransferase (hAGT; MGMT, methylated-DNA--protein-cysteine methyltransferase) (Homo sapiens)”, the pKa is given as “∼5”.
